Laboratory results reported in US20240262791A1 (University of California, published 2024).
Like-named read-outs stand apart in the source and are kept apart here.

What was measured:
[1] = target: T1, Mutated SARS-CoV-2 (COVID-19) S protein (RBD) N501Y (SARS-CoV-2, UniProt P0DTC2 319-537); experiment: BLI, biotinylated SR4 on streptavidin sensor, spike RBD in solution, 1:1 fit
T1 construct: also called N501Y: UK strain

[2] = target: T2, Mutated SARS-CoV-2 (COVID-19) S protein (RBD) E484K (SARS-CoV-2, UniProt P0DTC2 319-537); experiment: as above
[3] = target: T3, Mutated SARS-CoV-2 (COVID-19) S protein (RBD) N439K (SARS-CoV-2, UniProt P0DTC2 319-537); experiment: as above
[4] = target: T4, Mutated SARS-CoV-2 (COVID-19) S protein (RBD) F490L (SARS-CoV-2, UniProt P0DTC2 319-537); experiment: as above
[5] = target: T5, Spike RBD, WT (Example 7, Tables 4 and 2) (SARS-CoV-2, UniProt P0DTC2 319-541); experiment: as above
T5 construct: also called wildtype spike protein; Spike protein RBD

[6] = target: T6, Mutated SARS-CoV-2 (COVID-19) S protein (RBD), South African strain (K417N, E484K, N501Y) (SARS-CoV-2, UniProt P0DTC2 319-537); experiment: as above
T6 construct: also called K417N, E484K, N501Y: South Africa strain; B.1.351 lineage

[7] = target: T1, Mutated SARS-CoV-2 (COVID-19) S protein …; experiment: BLI; KD column of Table 2 repeats Table 4
[8] = target: T2, Mutated SARS-CoV-2 (COVID-19) S protein …; experiment: BLI; KD column of Table 2 repeats Table 4
[9] = target: T3, Mutated SARS-CoV-2 (COVID-19) S protein …; experiment: BLI; KD column of Table 2 repeats Table 4
[10] = target: T4, Mutated SARS-CoV-2 (COVID-19) S protein …; experiment: BLI; KD column of Table 2 repeats Table 4
[11] = target: T5, Spike RBD, WT (Example 7, Tables 4 and …); experiment: BLI; KD column of Table 2 repeats Table 4
[12] = target: T6, Mutated SARS-CoV-2 (COVID-19) S protein …; experiment: BLI; KD column of Table 2 repeats Table 4
[13] = target: T6, Mutated SARS-CoV-2 (COVID-19) S protein …

B1: Biotinylated SR4 (SR4 (5AzF) reacted with DBCO-biotin) (VHH)
VHH: QVQLVESGGGLVQAGGSLRLSCAASGFPVYSWNMWWYRQAPGKEREWVAAIESHGDSTRYADSVKGRFTISRDNAKNTVYLQMNSLKPEDTAVYYCYVWVGHTYYGQGTQVTVSA
notes: also called SR4 nanobody; biotin labeled SR4
[1]
  Kd: 30.5 nM
  koff: 0.0027 s⁻¹
  kon: 88600 M⁻¹ s⁻¹
[2]
  Kd: 31.8 nM
  koff: 0.0034 s⁻¹
  kon: 107000 M⁻¹ s⁻¹
[3]
  Kd: 59.3 nM
  koff: 0.00595 s⁻¹
  kon: 100000 M⁻¹ s⁻¹
[4]
  Kd: 42 nM
  koff: 0.00476 s⁻¹
  kon: 113000 M⁻¹ s⁻¹
[5]
  Kd: 17.9 nM
  koff: 0.00226 s⁻¹
  kon: 126000 M⁻¹ s⁻¹
[6]
  Kd: 57 nM
  koff: 0.00406 s⁻¹
  kon: 70800 M⁻¹ s⁻¹
[7]
  Kd: 30.5 nM
[8]
  Kd: 31.8 nM
[9]
  Kd: 59.3 nM
[10]
  Kd: 42 nM
[11]
  Kd: 17.9 nM
[12]
  Kd: 57 nM
[13]
  Kd: 57.4 nM
